# Measurements as given in doi:10.1101/2021.07.09.451512.
# Like-named read-outs stand apart in the source and are kept apart here.
# B1: Nme1Cas9 (N-terminal 6His-tag) (natural protein)
# chain: MAAFKPNSINYILGLDIGIASVGWAMVEIDEEENPIRLIDLGVRVFERAEVPKTGDSLAMARRLARSVRRLTRRRAHRLLRTRRLLKREGVLQAANFDENGLIKSLPNTPWQLRAAALDRKLTPLEWSAVLLHLIKHRGYLSQRKNEGETADKELGALLKGVAGNAHALQTGDFRTPAELALNKFEKESGHIRNQRSDYSHTFSRKDLQAELILLFEKQKEFGNPHVSGGLKEGIETLLMTQRPALSGDAVQKMLGHCTFEPAEPKAAKNTYTAERFIWLTKLNNLRILEQGSERPLTDTERATLMDEPYRKSKLTYAQARKLLGLEDTAFFKGLRYGKDNAEASTLMEMKAYHAISRALEKEGLKDKKSPLNLSPELQDEIGTAFSLFKTDEDITGRLKDRIQPEILEALLKHISFDKFVQISLKALRRIVPLMEQGKRYDEACAEIYGDHYGKKNTEEKIYLPPIPADEIRNPVVLRALSQARKVINGVVRRYGSPARIHIETAREVGKSFKDRKEIEKRQEENRKDREKAAAKFREYFPNFVGEPKSKDILKLRLYEQQHGKCLYSGKEINLGRLNEKGYVEIDHALPFSRTWDDSFNNKVLVLGSENQNKGNQTPYEYFNGKDNSREWQEFKARVETSRFPRSKKQRILLQKFDEDGFKERNLNDTRYVNRFLCQFVADRMRLTGKGKKRVFASNGQITNLLRGFWGLRKVRAENDRHHALDAVVVACSTVAMQQKITRFVRYKEMNAFDGKTIDKETGEVLHQKTHFPQPWEFFAQEVMIRVFGKPDGKPEFEEADTLEKLRTLLAEKLSSRPEAVHEYVTPLFVSRAPNRKMSGQGHMETVKSAKRLDEGVSVLRVPLTQLKLKDLEKMVNREREPKLYEALKARLEAHKDDPAKAFAEPFYKYDKAGNRTQQVKAVRVEQVQKTGVWVRNHNGIADNATMVRVDVFEKGDKYYLVPIYSWQVAKGILPDRAVVQGKDEEDWQLIDDSFNFKFSLHPNDLVEVITKKARMFGYFASCHRGTGNINIRIHDLDHKIGKNGILEGIGVKTALSFQKYQIDELGKEIRPCRLKKRPPVR
# Columns and labels:
# Test in all cases: fluorescence polarisation
# [1] = target: fluorescein labelled AcrIIC4 (wild type, engineered C-terminal cysteine) (Haemophilus parainfluenzae (prophage))
# [2] = target: fluorescein labelled AcrIIC4 (wild type, engineered C-terminal cysteine) (Haemophilus parainfluenzae (prophage)); remark: listed apart in the source
# [3] = target: fluorescein labelled AcrIIC4 (wild type, engineered C-terminal cysteine) (Haemophilus parainfluenzae (prophage)); remark: listed apart in the source
# [4] = target: fluorescein labelled AcrIIC4 F49A (Haemophilus parainfluenzae (prophage))
# [5] = target: fluorescein labelled AcrIIC4 K56A (Haemophilus parainfluenzae (prophage))
# [6] = target: fluorescein labelled AcrIIC4 R46A (Haemophilus parainfluenzae (prophage))
binder,measurement,setting,value
B1,Kd,[1],7.1 nM
same,Kd,[2],10.2 nM
same,Kd,[3],6.6 nM
same,Kd,[4],15.3 nM
same,Kd,[5],1.4 nM
same,Kd,[6],> 2500 nM
